Data published in publication PMC12867151.

Target: human immune complexes (ICs): heat-aggregated human IgG (human)

| Substance | neutrophil adhesion on IC-coated microcapillaries with adhered platelets at 2 dyn/cm^2; neutrophils preincubated with a blocking antibody against FcγRIIA; inhibition against the isotype control (% inhibition of neutrophil adhesion) | neutrophil adhesion on IC-coated microcapillaries with adhered platelets at 2 dyn/cm^2; neutrophils preincubated with a blocking antibody against FcγRIIIB; inhibition against the isotype control (% inhibition of neutrophil adhesion) |
| --- | --- | --- |
| Fcγ receptor 2a (FcγRIIA), human, on human platelets (from UniProt P12318 34-317) | 86.3 | – |
| FcγRIIIB, human, on neutrophils (from UniProt O75015 17-200) (receptor) | – | 63.8 |
